# Reference: article PMC1950529
# Where two headings read alike, the source gives them in different places.
# Experiments:
# [1] = target: Thermus aquaticus DnaB helicase (Thermus aquaticus); experiment: SEC
# [2] = target: Thermus aquaticus DnaB helicase (Thermus aquaticus); experiment: SEC; remark: listed apart in the source
substance,measurement,setting,value
Thermus aquaticus DnaB helicase (enzyme),stoichiometry N,[1],6
same,stoichiometry N,[2],6
